These results are taken from publication PMC5580921, “Homeodomain-like DNA binding proteins control the haploid-to-diploid transition in Dictyostelium”.

Data set [1] addresses T1, MatA (Dictyostelium discoideum, UniProt Q54HW9 1-107).
T1 sequence: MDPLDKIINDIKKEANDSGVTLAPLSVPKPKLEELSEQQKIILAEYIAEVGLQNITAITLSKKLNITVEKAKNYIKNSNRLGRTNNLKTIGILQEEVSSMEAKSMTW
As to the kind of experiment: EMSA; smear; nonspecific, low affinity; EMSA: 10 mM Tris-HCl pH 7.4, 1 mM EDTA, 20 mM NaCl, 30 min room temperature, 6% polyacrylamide gel in 1x tris-borate. NMR: 25 mM phosphate pH 6, 50 mM NaCl, 50. To be noted: protein: recombinant; tags: His6-lipoyl domain tag removed by TEV (15N-labeled for NMR); label: none (SYBR Gold stain); blunt.

Data set [2] deals with T2, MatB S71A (Dictyostelium discoideum, UniProt D3UFE5 1-107, S71A).
T2 sequence: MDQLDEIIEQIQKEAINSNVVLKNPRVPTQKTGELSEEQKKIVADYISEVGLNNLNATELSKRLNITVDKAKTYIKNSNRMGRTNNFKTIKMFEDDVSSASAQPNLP
Kind of data set: EMSA; similar to wild type; EMSA: 10 mM Tris-HCl pH 7.4, 1 mM EDTA, 20 mM NaCl, 30 min room temperature, 6% polyacrylamide gel in 1x tris-borate. NMR: 25 mM phosphate pH 6, 50 mM NaCl, 50. To be noted: protein: recombinant; tags: His6-lipoyl domain tag removed by TEV (15N-labeled for NMR); label: none (SYBR Gold stain); blunt. (A gel shift assay detects complexes by their altered migration in electrophoresis.)

Another data set concerns the target T3, MatA K72A/K76A (Dictyostelium discoideum, UniProt D3UFF3 1-107, K72A;K76A).
T3 sequence: T1 sequence with K72A, K76A
As to the kind of experiment: EMSA; EMSA: 10 mM Tris-HCl pH 7.4, 1 mM EDTA, 20 mM NaCl, 30 min room temperature, 6% polyacrylamide gel in 1x tris-borate. NMR: 25 mM phosphate pH 6, 50 mM NaCl, 50. The settings on record: protein: recombinant; tags: His6-lipoyl domain tag removed by TEV; label: none (SYBR Gold stain); blunt.

In another data set the target is T4, MatB (Dictyostelium discoideum, UniProt D3UFE5 1-107).
T4 sequence: T2 sequence with A71S
As to the kind of experiment: EMSA; nonspecific; EMSA: 10 mM Tris-HCl pH 7.4, 1 mM EDTA, 20 mM NaCl, 30 min room temperature, 6% polyacrylamide gel in 1x tris-borate. NMR: 25 mM phosphate pH 6, 50 mM NaCl, 50. The settings on record: protein: recombinant; tags: His6-lipoyl domain tag removed by TEV; label: none (SYBR Gold stain); blunt.

The target in data set [3] is T1, MatA. As to the kind of experiment: NMR; 58-bp titration 40-120 uM DNA, 20 uM MatA; fast exchange, very weak, unsaturated; EMSA: 10 mM Tris-HCl pH 7.4, 1 mM EDTA, 20 mM NaCl, 30 min room temperature, 6% polyacrylamide gel in 1x tris-borate. NMR: 25 mM phosphate pH 6, 50 mM NaCl, 50. The settings on record: protein: recombinant; tags: His6-lipoyl domain tag removed by TEV (15N-labeled for NMR); label: none; blunt.

The target of data set [4] is T2, MatB S71A. As to the kind of experiment: NMR; 80 uM DNA, 20 uM protein, 1 C; core signals lost by intermediate exchange broadening; EMSA: 10 mM Tris-HCl pH 7.4, 1 mM EDTA, 20 mM NaCl, 30 min room temperature, 6% polyacrylamide gel in 1x tris-borate. NMR: 25 mM phosphate pH 6, 50 mM NaCl, 50. The settings on record: protein: recombinant; tags: His6-lipoyl domain tag removed by TEV (15N-labeled for NMR); label: none; blunt.

For data set [5], the target named is T1, MatA. As to the kind of experiment: NMR; 80 uM DNA, 20 uM MatA; CSPs at L32, L35, E69, I75, K76, N77; EMSA: 10 mM Tris-HCl pH 7.4, 1 mM EDTA, 20 mM NaCl, 30 min room temperature, 6% polyacrylamide gel in 1x tris-borate. NMR: 25 mM phosphate pH 6, 50 mM NaCl, 50. The settings on record: protein: recombinant; tags: His6-lipoyl domain tag removed by TEV (15N-labeled for NMR); label: none; blunt.

Changes are numbered by the printed parent chain.

B1: EMSA dsDNA with MATalpha2 operator (dsDNA)
DNA 1: CCGAAACGTTTGGTGGCGCATGTAATTCATTTACACGCGCGAGGGCGTGCAAGATTC
DNA 2: GAATCTTGCACGCCCTCGCGCGTGTAAATGAATTACATGCGCCACCAAACGTTTCGG
B1: the binding result with MatA [1] was “binds”; in the data set with MatB S71A [2] it was “binds”; in the data set with MatA K72A/K76A it was “no binding”; in the data set with MatB, “binds”.

B2: 58-bp DNA (dsDNA)
DNA 1: GAATCTTGCACGCCCTCGCTCAAGCCTTCGTCACTGGTCCCGCCACCAAACGTTTCGG
DNA 2: CCGAAACGTTTGGTGGCGGGACCAGTGACGAAGGCTTGAGCGAGGGCGTGCAAGATTC
As to B2, in the data set with MatA [3], the binding result is “binds”.

B3: 29-bp DNA (dsDNA)
DNA 1: CCGAAACGTTTGGTGGCGGGACCAGTGAC
DNA 2: GTCACTGGTCCCGCCACCAAACGTTTCGG
As for B3, the binding result with MatB S71A [4] and with MatA [5] was “binds” each time.
